# Laboratory results published in publication PMC8054141.
# Target: Cerulean-ICDI1.4
# Assay: FRET two-hybrid assay
# Conditions: parent: est. 26 µM^-1; read off a plot
row,Ka,Substance
1,7.5 µM⁻¹,Venus-IQ-A1.3 AGL[1638]AAA
2,9.5 µM⁻¹,Venus-IQ-A1.3 AIS[1653]AAA
3,22 µM⁻¹,Venus-IQ-A1.3 AKN[1629]AAA
4,8.5 µM⁻¹,Venus-IQ-A1.3 ALQ[1635]AAA
5,44 µM⁻¹,Venus-IQ-A1.3 GPE[1647]AAA
6,55 µM⁻¹,Venus-IQ-A1.3 HDI[1644]AAA
7,8 µM⁻¹,Venus-IQ-A1.3 IRR[1650]AAA
8,25 µM⁻¹,Venus-IQ-A1.3 KYP[1626]AAA
9,27 µM⁻¹,Venus-IQ-A1.3 LVG[1623]AAA
10,7 µM⁻¹,Venus-IQ-A1.3 RTL[1641]AAA
11,54 µM⁻¹,Venus-IQ-A1.3 TTI[1632]AAA

# Same assay, conditions: parent: est. 21; read off a plot
row,Ka,Substance
1,9 µM⁻¹,Venus-PreIQ3-IQ-A1.3 A[-4]T
2,18 µM⁻¹,Venus-PreIQ3-IQ-A1.3 A[-16]T
3,18 µM⁻¹,Venus-PreIQ3-IQ-A1.3 D[+2]A
4,28 µM⁻¹,Venus-PreIQ3-IQ-A1.3 D[-13]A
5,14 µM⁻¹,Venus-PreIQ3-IQ-A1.3 D[-14]A
6,37 µM⁻¹,Venus-PreIQ3-IQ-A1.3 E[-12]A
7,3.2 µM⁻¹,Venus-PreIQ3-IQ-A1.3 F[+4]A
8,15 µM⁻¹,Venus-PreIQ3-IQ-A1.3 F[+7]A
9,12 µM⁻¹,Venus-PreIQ3-IQ-A1.3 F[-6]A
10,32 µM⁻¹,Venus-PreIQ3-IQ-A1.3 G[-8]A
11,22 µM⁻¹,Venus-PreIQ3-IQ-A1.3 G[-15]A
12,24 µM⁻¹,Venus-PreIQ3-IQ-A1.3 I[0]A
13,15 µM⁻¹,Venus-PreIQ3-IQ-A1.3 K[+6]A
14,15 µM⁻¹,Venus-PreIQ3-IQ-A1.3 K[+8]A
15,15 µM⁻¹,Venus-PreIQ3-IQ-A1.3 K[+9]A
16,15 µM⁻¹,Venus-PreIQ3-IQ-A1.3 K[+11]A
17,14 µM⁻¹,Venus-PreIQ3-IQ-A1.3 K[-7]A
18,7 µM⁻¹,Venus-PreIQ3-IQ-A1.3 L[-1]A
19,16 µM⁻¹,Venus-PreIQ3-IQ-A1.3 P[-17]A
20,22 µM⁻¹,Venus-PreIQ3-IQ-A1.3 P[-18]A
21,24 µM⁻¹,Venus-PreIQ3-IQ-A1.3 Q[+1]A
22,16 µM⁻¹,Venus-PreIQ3-IQ-A1.3 R[+5]A
23,15 µM⁻¹,Venus-PreIQ3-IQ-A1.3 R[+10]A
24,34 µM⁻¹,Venus-PreIQ3-IQ-A1.3 T[-3]A
25,37 µM⁻¹,Venus-PreIQ3-IQ-A1.3 T[-10]A
26,11 µM⁻¹,Venus-PreIQ3-IQ-A1.3 V[-9]A
27,15 µM⁻¹,Venus-PreIQ3-IQ-A1.3 V[-11]A
28,25 µM⁻¹,Venus-PreIQ3-IQ-A1.3 Y[+3]A
29,4.7 µM⁻¹,Venus-PreIQ3-IQ-A1.3 Y[-5]A

# Target: Venus-PreIQ3-IQ-A1.3
# Assay: FRET two-hybrid assay
# Conditions: parent: est. 22; read off a plot
row,Ka,Substance
1,14 µM⁻¹,Cerulean-ICDI1.4 ACR[1917]AAA
2,38 µM⁻¹,Cerulean-ICDI1.4 ALA[1908]AAA
3,30 µM⁻¹,Cerulean-ICDI1.4 ASD[1929]AAA
4,51 µM⁻¹,Cerulean-ICDI1.4 CVH[1962]AAA
5,7 µM⁻¹,Cerulean-ICDI1.4 DNA[1926]AAA
6,37 µM⁻¹,Cerulean-ICDI1.4 EAV[1889]AAA
7,40 µM⁻¹,Cerulean-ICDI1.4 EED[1953]AAA
8,38 µM⁻¹,Cerulean-ICDI1.4 EES[1944]AAA
9,6 µM⁻¹,Cerulean-ICDI1.4 EGL[1895]AAA
10,26 µM⁻¹,Cerulean-ICDI1.4 EMA[1959]AAA
11,3.5 µM⁻¹,Cerulean-ICDI1.4 GLF[1898]AAA
12,48 µM⁻¹,Cerulean-ICDI1.4 GTH[1871]AAA
13,42 µM⁻¹,Cerulean-ICDI1.4 HVP[1868]AAA
14,37 µM⁻¹,Cerulean-ICDI1.4 ILS[1947]AAA
15,6.5 µM⁻¹,Cerulean-ICDI1.4 KRG[1880]AAA
16,50 µM⁻¹,Cerulean-ICDI1.4 LGD[1956]AAA
17,56 µM⁻¹,Cerulean-ICDI1.4 QGT[1935]AAA
18,51 µM⁻¹,Cerulean-ICDI1.4 RFD[1950]AAA
19,30 µM⁻¹,Cerulean-ICDI1.4 SAD[1883]AAA
20,31 µM⁻¹,Cerulean-ICDI1.4 SDP[1874]AAA
21,61 µM⁻¹,Cerulean-ICDI1.4 SHG[1877]AAA
22,46 µM⁻¹,Cerulean-ICDI1.4 SSL[1938]AAA
